This is an account of results in article PMC5913134, “The IL-33-PIN1-IRAK-M axis is critical for type 2 immunity in IL-33-induced allergic airway inflammation” (Nature Communications, 2018).

The test system of this assay is IRAK1. Kind of assay: In vitro phosphorylation by IRAK1 immunoprecipitated from IL-33 stimulated cells. In kind it is biochemical. The settings on record: IRAK1 IPed from IL-33 stimulated cells, γP32 ATP, autoradiography. From the text:
Suppl em enta ry Figur e 2.
Supplementary Figure 2. IRAK-M DD structure modeling analysis and phosphorylation by IRAK1.
(a) Overlaid 1H-15N HSQC spectra of the 15N-labeled Pin1 WW domain showing changes in chemical environment resulting from titration with the phosphorylated IRAK-M peptide. Overlaid spectra of apo (red) and increasing amounts of ligand (rainbow of colors, with purple as highest ligand concentration) show progressive peak shifts. (b) Interaction between IRAK-M DD and IRAK1 DD from Figure 3f. Cyan: IRAK1 DDs, Yellow: IRAK-M DD. (c) The aromatic residues interaction between IRAK-M DD and IRAK4 DD from Figure 3f. Green: IRAK4 DDs, Yellow: IRAK-M DD. (d) IRAK-M or its mutants as described, were expressed in 293 cells or 293 IRAK1null cells expressing the ST2 receptor and treated with IL-33. The phosphorylation is shown by the slow migrating bands. (e) WT or Pin KO cells were treated with IL-33 and IRAK1 phosphorylation was monitored at different time after stimulation. (f) DC2.4 cells were either treated or not with IL-33. IRAK1 was IP’d and incubated with GST-IRAK-M aa1-120 in the presence of ΓP32ATP.
The beads were washed and GST-IRAK-M was eluted and run for autoradiography. […]

B1: GST-IRAK-M: purified GST-IRAK-M containing amino acids 1-120 (protein, UniProt Q8K4B2 1-120, looked up, fragment)
chain: MAGRCGARGALSPQLLLFDLPPALLGELCGILDSCDGPLGWRGLAERLSNSWLDVRHIEKYVNQGKSGTRELLWSWAQKNKTIGDLLEVLQDMGHQRAIHLIINYGVSWTPSVQTHHELP
modifications: GST tag
On to B1, for which the “phosphorylation by IRAK1” value is “phosphorylated WT IRAK-M”.
